From patent publication US20030148973A1 (published 2003)

Molecular target: T1, HLA-A0201 molecules on the surface of T2 cells
T1 construct: whole, on cells; Empty (peptide-stripped) HLA-A0201 on T2 cells; also called HLA-A2
Assay: T2 cell HLA-A0201 stabilization; 20 µg peptide on 10^6 acid-stripped T2 cells, BB7.2 staining, flow cytometry
Experimental: Subsequent dissociation of peptides from the HLA class 1 MHC molecules results in the loss of BB7.2 monoclonal antibody binding.
In order to determine whether the identified nonapeptides can be presented by HLA-A0201, T2 cells were propagated in RPMI complete medium (RPMI medium supplemented with 10% heat-inactivated bovine serum, 120.0 units per ml of penicillin G sodium, 120 μg per ml of streptomycin sulphate, and 0.35 mg per ml of L-glutamine). The ability of MAGE-A1 derived peptides to bind and stabilize surface HLA-A0201 molecules on T2 cells was determined utilizing a standard protocol (Deng, Y. (1997) J Immunol 158:1507-1515). The required number of T2 flasks were incubated overnight at 26° C. serum-free culture medium (RPMI medium supplemented with 120.0 units per ml of penicillin G sodium and 0.35 mg per ml of L-glutamine). The next day, cells were washed with RPMI medium (without bovine serum) and then resuspended in denaturing solution (300 mM Glycine in 1% BSA, pH 2.5) for 3 min, in order to strip the existing HLA A2 molecules of endogenous peptide. The stripped T2 cells were washed at once in an excess of RPMI media (without bovine serum) to neutralize the acidic stripping solution. To load the peptide of interest into the HLA-A2 peptide binding groove, 20 μg of specific peptide was pulsed onto 10⁶ denatured T2 cells in 2 ml peptide loading media (RPMI medium supplemented with 120.0 units per ml of penicillin G sodium; 0.35 mg per ml of L-glutamine; 1× sodium pyruvate; 1× non-essential amino acids; 1×2-mercapto-ethanol) for 4 hours at 26° C. The cells were washed in cold 1% BSA in PBS and resuspended in 100 μl of cold 1% BSA in PBS to prevent MHC protein turn over. […] The binding of BB7.2 was detected via the addition of 1.0 μg per test of goat anti-mouse IgG-Fc fluorescein (FITC) conjugate (BETHYL Laboratories Inc). […] The samples were then analyzed by Flow Cytometry, and the results were expressed in units of Fluorescence Index (FI), calculated by the equation: […]

Fluorescence Index (FI) | Binder
1.61 | SAYGEPRKL (also called Peptide # 14) [MAGE-A1 230]
0.52 | LQLVFGIDV (also called Peptide # 3) [MAGE-A1 151]
2.18 | KVLEYVIKV (also called Peptide # 1) [MAGE-A1 278]
